This note sets out measurements from US20250270315A1.

To fix the notation:
B1: 005c (antibody, V domains shown)
VH: EVKLVESGGGLVQPGGSLSLSCAASGFTFTDYYMSWVRQPPGKALEWLGFIKNEANGYTTESSASVKGRFTISRDNSQSILYLQMNALRAEDSATYYCARYDYYGSNYNWYFDAWGTGTTVTVSS
VL: DIVMTQSQKFMSPSVGDRVSITCKASQNVRTAVAWYQQKPGQSPKVLIHLASKRHTGVPDRFTGSGSGTDFTLTISNVQSEDLADYFCLQHWIHPLTFGAGTKLELK
B2: 059c (antibody, V domains shown)
VH: QVQLQQSGPELVKPGASVKMSCKASGYTFSEYVLSWVKQRTGQGLEWIGEIYPGTITTYYNEKFKGKATLTADKSSNTAYIQLTSLTSEDSAVYFCGRFYDYDGGWFAYWGQGTLLTVSA
VL: ENVLTQSPEKMAVSLGQKVTMTCSASSSVSSSDLHWYQQKSGASPKPLIHGTSNLASGVPARFSGSGSGTSYSLTISSVEAEDAATYYCQQWSGYPWTFGGGTNLEIK
B3: 015c (antibody, V domains shown)
VH: EVQLQQSGVEVVQPGASVKLSCTASGFNIEAYYMHWVKQRTEQGLEWIGRIDPEDGESKYAPKFQGKATMTADTSSSTAYLQLSSLTSDDTAVYYCVRGSYEYWGQGTTLTVSS
VL: QIVLTQSPAIMSASPGEKVTLTCSASSSVSSSYLYWYQQKPGSSPKLWIYSTSNLASGVPPRFSGSGSGTSYSLTISSMQAEDAASYFCYQWSSYPYTFGGGTKLEIK
B4: 073c (antibody, V domains shown)
VH: QIQLVQSGPELKKPGETVKISCKASGYTFTTYGMSWVKQAPGKGLKWMVWINTYSGVPTYADDFKGRFAFSLETSASTSYLQINNLKNEDTATYFCARDPHYYGSSPAWFVYWGQGTLVTVSA
VL: DIVMTQSQKFMSTTIGDRVSITCEASQIVGIAVAWYQQKPGQSPKLLIYSASNRYTGVPDRFTGSGSGTDFTLTISNMQSEDLANYFCQQYSAYPFTFGSGTKLEVK
B5: 071c (antibody, V domains shown)
VH: B4 VH with K65Q, K87R, S105T, V111A
VL: B4 VL with S20I, E24K, Y55F, N85D, A93T, V106I
B6: 042c (antibody, V domains shown)
VH: QIQLVQSGPELKKPGETVKISCRASGYTFTTYGMSWVKQAPGKGLRWMGWINTYSGVSTCADDFKGRFAFSLETSATTAYLQIHNLTNEDTATYFCARDPHSYGNSPAWFPYWGQGTLVTVSA
VL: B4 VL with G16R, E24K, I28N, A32S, P40S, N85D, A93S, F96L, E105A, V106I
B7: hu025.021 (antibody, V domains shown)
VH: EVQLVQSGAEVKKPGATVKISCKVSGFNIKDYYMHWVQQAPGKGLEWIGRIDPEDAETKYAPKFQGRVTITADTSTNTAYMELSSLRSEDTAVYYCDRGLAYWGQGTLVTVSS
VL: EIVLTQSPATLSLSPGERATLSCSASSSVSSSYLYWYQQKPGQAPKLWIYSTSNLASGIPARFSGSGSGTDYTLTISSLEPEDFAVYYCHQWSSYPYTFGQGTKLEIK
B8: hu025.060 (antibody, V domains shown)
VH: B7 VH with V24A
VL: B7 VL with Y72F
B9: hu025.033 (antibody, V domains shown)
VH: B7 VH with N77D
VL: B7 VL
B10: hu025.059 (antibody, V domains shown)
VH: B7 VH with V24A
VL: B7 VL
B11: hu025.023 (antibody, V domains shown)
VH: B7 VH
VL: B7 VL with Y72F
B12: 005 (antibody, V domains shown)
VH: B1 VH
VL: B1 VL
B13: 059 (antibody, V domains shown)
VH: B2 VH
VL: B2 VL
B14: 025 (antibody, V domains shown)
VH: EVQLQQSGAELVKPGASVKLSCTASGFNIKDYYMHWVKQRTEQGLEWIGRIDPEDGETKYAPKFQGKATITADTSSNTAYLQLSSLTSEDTAVYYCDRGLAYWGQGTLVTVSA
VL: B3 VL with P61A, Q80E, Y90H
B15: 015 (antibody, V domains shown)
VH: B3 VH
VL: B3 VL
B16: 042 (antibody, V domains shown)
VH: B6 VH
VL: B4 VL with G16R, E24K, I28N, A32S, P40S, N85D, A93S, F96L, E105A, V106I
B17: 073 (antibody, V domains shown)
VH: B4 VH
VL: B4 VL
B18: 071 (antibody, V domains shown)
VH: B4 VH with K65Q, K87R, S105T, V111A
VL: B4 VL with S20I, E24K, Y55F, N85D, A93T, V106I

The EC50 is the concentration at which the effect is half-maximal. Lower therefore signals an effect from little substance. As a reminder, the Kd is the constant that tells how readily two partners part at equilibrium. Higher therefore signals weaker binding. A word on the koff: it is the first-order rate constant of dissociation. Low values mean a long-lived complex, high ones a short-lived complex. As a reminder, the kon is a measure of how fast the partners come together. A lower kon goes with slow association. As a reminder, the IC50 is the concentration at which inhibition is half-maximal. Read a high IC50 as a need for much substance.

Numbering of substitutions follows the chain as printed.

The target in the first assay is human SIRPα v2 expressed on cells (CHOK1 stable line KYinno KC-1720) (human) (UniProt P78324). The assay can be described thus: FACS, CHOK1-hSIRPα v2 cells. Background: In flow cytometry, cells or beads pass a laser one at a time.
B1 showed an EC50 of 5.47 nM and a TOP MFI of 53300 MFI.

In the case of B2, the EC50 was 12 nM and the TOP MFI was 19600 MFI.

Turning to B3, the EC50 stood at 1.58 nM and the TOP MFI came to 50100 MFI.

B4 gave a 50% effective concentration (EC50) of 2.12 nM and a TOP MFI of 47300 MFI.

In turn, B5 showed an EC50 of 3.31 nM and a TOP MFI of 46700 MFI.

In the case of B6, the 50% effective concentration (EC50) was determined as 4.21 nM and the TOP MFI worked out at 54800 MFI.

Another assay shares this target. The assay can be described thus: FACS, CHOK1-hSIRPα v2 cells. The source holds these as a separate data set.
In turn, B7 came in with a half-maximal effective concentration (EC50) of 0.87 nM and a TOP MFI of 46400 MFI.

B8 had an EC50 of 0.8 nM and a TOP MFI of 48800 MFI.

Regarding B9, the EC50 is 0.62 nM and the TOP MFI came to 39800 MFI.

Molecule B10 displayed an EC50 of 0.75 nM and a TOP MFI of 47300 MFI.

For B11, the EC50 is 0.81 nM and the TOP MFI is 45800 MFI.

For another assay, the target named is cyno SIRPα stably expressed on CHOK1 cells (cyno). The assay can be described thus: FACS, CHOK1-cyno SIRPα cells.
In turn, B12 registered an MFI at 10 nM of 5970 MFI.

Consider B13, for which the MFI at 10 nM worked out at 5840 MFI.

The molecule B14 gave an MFI at 10 nM of 8560 MFI.

B15 had an MFI at 10 nM of 10800 MFI.

As to B16, the MFI at 10 nM worked out at 6850 MFI.

The molecule B17 returned an MFI at 10 nM of 7850 MFI.

In turn, B18 had an MFI at 10 nM of 8370 MFI.

For another assay the target is unchanged. Description: FACS, CHOK1-Cyno SIRPα cells.
Regarding B2, the concentration for a half-maximal effect (EC50) is 17.2 nM and the TOP MFI worked out at 17400 MFI.

B3 had an EC50 of 0.69 nM and a TOP MFI of 29700 MFI.

Turning to B4, the concentration for a half-maximal effect (EC50) came out at 1.76 nM and the TOP MFI was 30700 MFI.

On to B5, for which the half-maximal effective concentration (EC50) worked out at 2.64 nM and the TOP MFI was 32300 MFI.

Regarding B6, the concentration for a half-maximal effect (EC50) is 2.95 nM and the TOP MFI was determined as 32400 MFI.

The next assay addresses Human SIRPα v2 (antigen of the Octet and Biacore affinity measurements) (human) (UniProt P78324). Description: BLI (Octet), 1:1 binding model.
On to B3, for which the dissociation constant Kd turned out to be 0.937 nM, the koff worked out at 0.00117 s⁻¹ and the on-rate (kon) came out at 1.24e+06 M⁻¹ s⁻¹.

Take B6: the dissociation constant (Kd) came out at 6.14 nM, the koff came to 0.00378 s⁻¹ and the on-rate (kon) was 616000 M⁻¹ s⁻¹.

For another assay the target is unchanged. Description: SPR (Biacore), 1:1 binding model. (Surface plasmon resonance follows binding to a sensor surface in real time, without labels.)
As to B7, the equilibrium dissociation constant (Kd) amounted to 3.39 nM, the off-rate (koff) was determined as 0.0056 s⁻¹ and the on-rate constant (kon) is 1.65e+06 M⁻¹ s⁻¹.

As for B8, the dissociation constant Kd amounted to 2.34 nM, the off-rate (koff) stood at 0.00344 s⁻¹ and the kon was found to be 1.47e+06 M⁻¹ s⁻¹.

As for B10, the Kd was 2.76 nM, the koff was 0.00392 s⁻¹ and the kon amounted to 1.42e+06 M⁻¹ s⁻¹.

In turn, B11 showed a Kd of 2.78 nM, a koff of 0.00492 s⁻¹ and an association rate constant (kon) of 1.77e+06 M⁻¹ s⁻¹.

Another assay addresses human SIRPα v2 expressed on cells (CHOK1 stable line KYinno KC-1720) (human) (UniProt P78324). Description: competitive FACS, mFc-CD47 ECD on CHOK1-human SIRPα v2 cells.
Molecule B8 registered a half-inhibitory concentration (IC50) of 0.77 nM and a TOP blocking (%) of 99.8%.

Molecule B11 returned a half-inhibitory concentration (IC50) of 0.75 nM and a TOP blocking (%) of 100%.
